From patent publication US20200055935A1 (AGENCY FOR SCIENCE TECHNOLOGY AND RESEARCH, published 2020)

B1: anti-TIM-3 antibody clone 1H10 (antibody, V domains shown)
VH: QVQLQQWGAGLLKPSETLSLTCAVYGGSFSGYYWSWIRQPPGKGLEWIGEINHSGSTNYNPSLKSRVTISVDTSKNQFSLKLSSVTAADTAVYYCARGYVAGFDSWGQGTLVTVSS
VL: QSVLTQPPSVSAAPGQKVTISCSGSSSNIGNNYVSWYQQLPGTAPKLLIYGNNWRPSGIPDRFSGSKSGTSATLGITGLQTGDEADYYCDSWDYDYAAGVFGGGTKLTVL
B2: anti-TIM-3 antibody clone 1B9 (antibody, V domains shown)
VH: QVQLQQWGAGLLKPSETLSLTCAVYGGSFSGYYWSWIRQPPGKGLEWIGEINHSGSTNYNPSLKSRVTISVDTSKNQFSLKLSSVTAADTAVYYCARGYVAGSDAWGQGTLVTVSS
VL: QSVLTQPPSVSAAPGQKVTISCSGSSSNIGNNYVSWYQQLPGTAPKLLIYGNNWRPSGIPDRFSGSKSGTSATLGITGLQTGDEADYYCEAWDYYVAAGYFGGGTKLTVL
notes: also called 169
B3: anti-TIM-3 antibody clone 1D9 (antibody, V domains shown)
VH: QVQLQQWGAGLLKPSETLSLTCAVYGGSFSGYYWSWIRQPPGKGLEWIGEINHSGSTNYNPSLKSRVTISVDTSKNQFSLKLSSVTAADTAVYYCARGYYAGDDYWGQGTLVTVSS
VL: QSVLTQPPSVSAAPGQKVTISCSGSSSNIGNNYVSWYQQLPGTAPKLLIYGNNWRPSGIPDRFSGSKSGTSATLGITGLQTGDEADYYCEAWDSAYAAGSFGGGTKLTVL
B4: anti-TIM-3 antibody clone 1F4 (antibody, V domains shown)
VH: QVQLQQWGAGLLKPSETLSLTCAVYGGSFSGYYWSWIRQPPGKGLEWIGEINHSGSTNYNPSLKSRVTISVDTSKNQFSLKLSSVTAADTAVYYCARGYVAGYDYWGQGTLVTVSS
VL: QSVLTQPPSVSAAPGQKVTISCSGSSSNIGNNYVSWYQQLPGTAPKLLIYGNNWRPSGIPDRFSGSKSGTSATLGITGLQTGDEADYYCDSWDAALSAGVFGGGTKLTVL
B5: anti-TIM-3 antibody clone 1H9 (antibody, V domains shown)
VH: QVQLQQWGAGLLKPSETLSLTCAVYGGSFSGYYWSWIRQPPGKGLEWIGEINHSGSTNYNPSLKSRVTISVDTSKNQFSLKLSSVTAADTAVYYCARGYVAGFDDWGQGTLVTVSS
VL: QSVLTQPPSVSAAPGQKVTISCSGSSSNIGNNYVSWYQQLPGTAPKLLIYGNNWRPSGIPDRFSGSKSGTSATLGITGLQTGDEADYYCDSWDSADASGVFGGGTKLTVL
B6: anti-TIM-3 antibody clone 2C7 (antibody, V domains shown)
VH: QVQLQQWGAGLLKPSETLSLTCAVYGGSFSGYYWSWIRQPPGKGLEWIGEINHSGSTNYNPSLKSRVTISVDTSKNQFSLKLSSVTAADTAVYYCARGYVAGYDYWGQGTLVTVSS
VL: QSVLTQPPSVSAAPGQKVTISCSGSSSNIGNNYVSWYQQLPGTAPKLLIYGNNWRPSGIPDRFSGSKSGTSATLGITGLQTGDEADYYCDSWDSYLAAGVFGGGTKLTVL
B7: anti-TIM-3 antibody clone 2F4 (antibody, V domains shown)
VH: QVQLQQWGAGLLKPSETLSLTCAVYGGSFSGYYWSWIRQPPGKGLEWIGEINHSGSTNYNPSLKSRVTISVDTSKNQFSLKLSSVTAADTAVYYCARGYVAGSDAWGQGTLVTVSS
VL: QSVLTQPPSVSAAPGQKVTISCSGSSSNIGNNYVSWYQQLPGTAPKLLIYGNNWRPSGIPDRFSGSKSGTSATLGITGLQTGDEADYYCESWDYDYASGVFGGGTKLTVL
B8: anti-TIM-3 antibody clone 2G6 (antibody, V domains shown)
VH: QVQLQQWGAGLLKPSETLSLTCAVYGGSFSGYYWSWIRQPPGKGLEWIGEINHSGSTNYNPSLKSRVTISVDTSKNQFSLKLSSVTAADTAVYYCARGYVAGFDSWGQGTLVTVSS
VL: QSVLTQPPSVSAAPGQKVTISCSGSSSNIGNNYVSWYQQLPGTAPKLLIYGNNWRPSGIPDRFSGSKSGTSATLGITGLQTGDEADYYCDSWDSSDSSGVFGGGTKLTVL

Biological target: T1, human TIM-3 coupled to Fc (human, UniProt Q8TDQ0 22-200, limits assumed)
T1 construct: Immobilised on the SPR sensor chip; not shown: Fc part
Test: SPR (ProteOn XPR36), human TIM-3-Fc immobilised, antibody in flow
Description: In order to select some leads amongst the ELISA-positive clones, TIM-3 association/dissociation profiles were analysed by Surface Plasmon Resonance (SPR). Briefly, human TIM-3 coupled to Fc was immobilised on sensor chip and the antibodies were then applied as a flow onto the chip. Association and dissociation rates were recorded using a ProteOn XPR36 bioanalyser (Biorad). Nine clones (1B9, 1H9, 1H10, 2C7, 2F4, 2G6, 1D9, 1F4, 2C8) were selected based on their rapid/strong association to TIM-3 and their slow dissociation from the protein (FIG. 5).

Question: Does B1 bind?
Answer: binds

Question: Does B2 bind?
Answer: binds

Question: Does B3 bind?
Answer: binds

Question: Does B4 bind?
Answer: binds

Question: Does B5 bind?
Answer: binds

Question: Does B6 bind?
Answer: binds

Question: Does B7 bind?
Answer: binds

Question: Does B8 bind?
Answer: binds
